According to patent US20260201033A1 (LTZ THERAPEUTICS, published 2026):
Values belong to the binder of their own block, whether it stands above or below them.

Columns and labels:
[1] = target: T1, Human CLEC5A His Tag protein (ACROBiosystems, Cat #: CLA-H5243) (human, UniProt Q9NY25 28-188, limits assumed); assay: ELISA, plate coated with human CLEC5A
T1 construct: Bought protein with a His tag; also called recombinant human CLEC5A protein
T1 sequence: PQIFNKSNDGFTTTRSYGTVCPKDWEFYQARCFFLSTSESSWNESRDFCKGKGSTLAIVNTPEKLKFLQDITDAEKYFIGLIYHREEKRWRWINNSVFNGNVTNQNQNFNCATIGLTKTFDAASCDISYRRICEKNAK
Method: Protein antigen was aspirated, and wells were washed 3 times with 400 μL of wash buffer (0.05% Tween® 20 in PBS) using a plate washer. Anti-CLEC5A antibodies were prepared as the primary antibody at 5 μg/mL and serially diluted 3-fold through 11 points (diluted concentrations) with reagent buffer (PBS+0.05% BSA). 100 μL of primary antibody was added to appropriate wells and incubated for 1 hour at room temperature. Primary antibody was aspirated, and wells were washed 3 times with 400 μL of wash buffer (0.05% Tween® 20 in PBS) using a plate washer. […] Secondary antibody was aspirated, and wells were washed 3 times with 400 μL of wash buffer (0.05% Tween® 20 in PBS) using a plate washer. […] 100 μL of Fisher 1N Sulfuric Acid (Cat #: SA212-2) stop solution was added to each well and the plate was read in a plate reader at 450 nm. For analysis, OD450 of each antibody was plotted using GraphPad Prism software (Version 9.4.1; GraphPad Software Inc.).

[2] = target: T2, CD79b on Ramos cells and on endogenous B cells of human PBMCs (human, UniProt P40259 29-229); assay: cell-based or functional assay
T2 sequence (looked up): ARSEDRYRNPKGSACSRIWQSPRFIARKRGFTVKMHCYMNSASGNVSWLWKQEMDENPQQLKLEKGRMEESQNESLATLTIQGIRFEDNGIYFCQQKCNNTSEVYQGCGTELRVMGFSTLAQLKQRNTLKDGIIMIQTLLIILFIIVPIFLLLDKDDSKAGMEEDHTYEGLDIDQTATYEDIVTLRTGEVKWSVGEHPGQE

[3] = target: T2, CD79b on Ramos cells and on endogenous …; assay: cell-based or functional assay; remark: listed apart in the source
[4] = target: T2, CD79b on Ramos cells and on endogenous …; assay: cell-based or functional assay; remark: listed apart in the source
[5] = target: T2, CD79b on Ramos cells and on endogenous …; assay: cell-based or functional assay; remark: listed apart in the source

EC50 [1]: 0.33 nM
B1: h6A5, humanized anti-CLEC5A antibody (antibody, V domains shown)
VH: EQQLVESGGGLVQPGGSLRLSCSASGFSFSSSYYMCWVRQAPGKGLELIACIYSSSGRTWYATWVNGRFTISRDTSKNTVYLQMNSLRAEDTAVYFCARSYAGYGGYGYAYFNLWGPGTLVTVSS
VL: EIVMTQSPATLSVSPGERATLSCQASEDIYSSLAWYQQKPGQRPRLLIYDASTLASGVPARFSGSGSGTEYTLTISSLQSEDFAVYYCQNYYDSTGSGYGAAFGGGTKVEIK
notes: also called humanized 6A5

EC50 [1]: 0.12 nM
B2: h13E6, humanized anti-CLEC5A antibody (antibody, V domains shown)
VH: EQQLLESGGGLVQPGGSLRLSCAASGFSFSSSYWLCWVRQAPGKGLEWIACIYGGSSRGTYYASWAKGRFTISKDSSKNTVYLQMNSLRAEDTAVYFCASHTYTYPRFSPYFNLWGPGTLVTVSS
VL: EFVMTQSPATLSVSPGERATLSCQASEDIESSLAWYQQKPGQPPRLLIYDASDLESGVPARFSGSGSGTEYTLTISSLQSEDFAVYFCQSAYYTGSADNTFGGGTKVEIK
notes: also called humanized 13E6

EC50 [1]: 0.22 nM
B5: h7G10, humanized anti-CLEC5A antibody (antibody, V domains shown)
VH: EQQLVESGGGVVQPGRSLRLSCAASGFSFSSGYDMCWVRQAPGKGLEWIACIYGGRSDNVYYARWAKGRFTISKDSSTNTVFLQMNSLRAEDTAVYFCARDYLYRGYIGGGYGRSNLWGPGTLVTVSS
VL: DVQMTQSPSSVSASVGDRVTITCRASEDIENCLAWYQQKPGKPPKLLIYQASKLPSGVPSRFSGSGSGTDYTLTISSLQPEDFATYYCQNPDYMRNTDNLFGGGTKVEIK
notes: also called humanized 7G10

Continued, binder first:

B3: h3A7, humanized anti-CLEC5A antibody (antibody, V domains shown)
VH: EQQLLESGGGLVQPGGSLRLSCAASGFSFSGMYWICWVRQAPGKGLEWIACIYTGSSTTGYASWAKGRFTISKDSSKNTVYLQMNSLRAEDTAVYFCASPYGDSSHYRGLNLWGPGTLVTVSS
VL: DVQMTQSPSSLSASVGDRVTITCQASQRINNYLSWFQQKPGKPPKLLIYGAATLASGVPSRFSGSGSGTDYTLTISSLQPEDVATYYCQCTYGIPSSNYGFGGGTKVEIK
notes: also called humanized 3A7
EC50 [1]: 0.47 nM

B4: h5C7, humanized anti-CLEC5A antibody (antibody, V domains shown)
VH: EQQLVESGGGLVKPGGSLRLSCAASGFSFSRSSYMCWVRQAPGKCLEWIGCLSVGDGHTYYASWAKGRFTISKDSAKNSVYLQMNSLRAEDTAVYFCARAPSYSGDGGHGYDLWGPGTLVTVSS
VL: DIQMTQSPSSLSASVGDRVTITCQASESVDRNNRLAWFQQKPGKPPKLLIYTTSTLASGVPSRFSGSGSGTDFTLTISSLQPEDVATYYCAGYRGAHTDGDAFGCGTKVEIK
notes: also called humanized 5C7
EC50 [1]: 0.44 nM

B6: CD79b/5C7 (2+1 A) Fc-optimized (bispecific antibody, human IgG1, kappa)
heavy 1: EQQLVETGGGLIQPGGSLRLSCAASGFTINIDYWISWVRQAPGKGLEWIGIIDPGDGTTYFAIWVSGRFTISFDNSKNTVYLQMNSLRAEDTAVYFCVREFSASAYQYDLWGPGTLVTVSSASTKGPSVFPLAPSSKSTSGGTAALGCLVKDYFPEPVTVSWNSGALTSGVHTFPAVLQSSGLYSLSSVVTVPSSSLGTQTYICNVNHKPSNTKVDKKVEPKSCDGGGGSGGGGSGGGGSEQQLVETGGGLIQPGGSLRLSCAASGFTINIDYWISWVRQAPGKGLEWIGIIDPGDGTTYFAIWVSGRFTISFDNSKNTVYLQMNSLRAEDTAVYFCVREFSASAYQYDLWGPGTLVTVSSASTKGPSVFPLAPSSKSTSGGTAALGCLVKDYFPEPVTVSWNSGALTSGVHTFPAVLQSSGLYSLSSVVTVPSSSLGTQTYICNVNHKPSNTKVDKKVEPKSCDKTHTCPPCPAPELLAGPSVFLFPPKPKDTLMISRTPEVTCVVVDVSHEDPEVKFNWYVDGVEVHNAKTKPREEQYNSTYRVVSVLTVLHQDWLNGKEYKCKVSNKALPLPEEKTISKAKGQPREPQVYTLPPSRDELTKNQVSLSCAVKGFYPSDIAVEWESNGQPENNYKTTPPVLDSDGSFFLVSKLTVDKSRWQQGNVFSCSVMHEALHNHYTQKSLSLSPGK
heavy 2: DIQMTQSPSSLSASVGDRVTITCQASESVDRNNRLAWFQQKPGKPPKLLIYTTSTLASGVPSRFSGSGSGTDFTLTISSLQPEDVATYYCAGYRGAHTDGDAFGGGTKVEIKGGGGSGGGGSGGGGSGGGGSEQQLVESGGGLVKPGGSLRLSCAASGFSFSRSSYMCWVRQAPGKGLEWIGCLSVGDGHTYYASWAKGRFTISKDSAKNSVYLQMNSLRAEDTAVYFCARAPSYSGDGGHGYDLWGPGTLVTVSSDKTHTCPPCPAPELLAGPSVFLFPPKPKDTLMISRTPEVTCVVVDVSHEDPEVKFNWYVDGVEVHNAKTKPREEQYNSTYRVVSVLTVLHQDWLNGKEYKCKVSNKALPLPEEKTISKAKGQPREPQVYTLPPSRDELTKNQVSLWCLVKGFYPSDIAVEWESNGQPENNYKTTPPVLDSDGSFFLYSKLTVDKSRWQQGNVFSCSVMHEALHNHYTQKSLSLSPGK
light: ELVMTQSPATLSVSPGERATLSCRASEDIENYLAWYQQKPGQPPRLLIYRASTLSSGVPARFSGSGSGTEFTLTISSLQSEDFAVYYCQQGYRNSNVDNPFGGGTKVEIKRTVAAPSVFIFPPSDEQLKSGTASVVCLLNNFYPREAKVQWKVDNALQSGNSQESVTEQDSKDSTYSLSSTLTLSKADYEKHKVYACEVTHQGLSSPVTKSFNRGEC
IC50 (nM), Ramos cell killing by PBMCs (test 2), Donor 234 [2]: 0.00472 nM
IC50 (nM), killing of endogenous B cells by PBMCs, Donor 234 [3]: 0.0178 nM
IC50 (nM), Ramos cell killing by M2 macrophages, Donor 022 [4]: 0.002 nM
IC50 (nM), Ramos cell killing by M0 macrophages, Donor 022 [5]: 0.002 nM

B7: CD79b/5C7 (1+1 A) Fc-optimized (bispecific antibody, human IgG1, kappa)
heavy 1: EQQLVETGGGLIQPGGSLRLSCAASGFTINIDYWISWVRQAPGKGLEWIGIIDPGDGTTYFAIWVSGRFTISFDNSKNTVYLQMNSLRAEDTAVYFCVREFSASAYQYDLWGPGTLVTVSSASTKGPSVFPLAPSSKSTSGGTAALGCLVKDYFPEPVTVSWNSGALTSGVHTFPAVLQSSGLYSLSSVVTVPSSSLGTQTYICNVNHKPSNTKVDKKVEPKSCDKTHTCPPCPAPELLAGPSVFLFPPKPKDTLMISRTPEVTCVVVDVSHEDPEVKFNWYVDGVEVHNAKTKPREEQYNSTYRVVSVLTVLHQDWLNGKEYKCKVSNKALPLPEEKTISKAKGQPREPQVYTLPPSRDELTKNQVSLSCAVKGFYPSDIAVEWESNGQPENNYKTTPPVLDSDGSFFLVSKLTVDKSRWQQGNVFSCSVMHEALHNHYTQKSLSLSPGK
heavy 2: EQQLVESGGGLVKPGGSLRLSCAASGFSFSRSSYMCWVRQAPGKGLEWIGCLSVGDGHTYYASWAKGRFTISKDSAKNSVYLQMNSLRAEDTAVYFCARAPSYSGDGGHGYDLWGPGTLVTVSSASTKGPSVFPLAPSSKSTSGGTAALGCLVKDYFPEPVTVSWNSGALTSGVHTFPAVLQSSGLYSLSSVVTVPSSSLGTQTYICNVNHKPSNTKVDKKVEPKSCDKTHTCPPCPAPELLAGPSVFLFPPKPKDTLMISRTPEVTCVVVDVSHEDPEVKFNWYVDGVEVHNAKTKPREEQYNSTYRVVSVLTVLHQDWLNGKEYKCKVSNKALPLPEEKTISKAKGQPREPQVYTLPPSRDELTKNQVSLWCLVKGFYPSDIAVEWESNGQPENNYKTTPPVLDSDGSFFLYSKLTVDKSRWQQGNVFSCSVMHEALHNHYTQKSLSLSPGK
light 1: B6 light
light 2: DIQMTQSPSSLSASVGDRVTITCQASESVDRNNRLAWFQQKPGKPPKLLIYTTSTLASGVPSRFSGSGSGTDFTLTISSLQPEDVATYYCAGYRGAHTDGDAFGGGTKVEIKRTVAAPSVFIFPPSDEQLKSGTASVVCLLNNFYPREAKVQWKVDNALQSGNSQESVTEQDSKDSTYSLSSTLTLSKADYEKHKVYACEVTHQGLSSPVTKSFNRGEC
IC50 (nM), Ramos cell killing by PBMCs (test 2), Donor 234 [2]: 0.338 nM

B8: CD79b/5C7 (2+2 A) Fc-silenced (bispecific antibody, human IgG1, kappa, L234A L235A)
heavy: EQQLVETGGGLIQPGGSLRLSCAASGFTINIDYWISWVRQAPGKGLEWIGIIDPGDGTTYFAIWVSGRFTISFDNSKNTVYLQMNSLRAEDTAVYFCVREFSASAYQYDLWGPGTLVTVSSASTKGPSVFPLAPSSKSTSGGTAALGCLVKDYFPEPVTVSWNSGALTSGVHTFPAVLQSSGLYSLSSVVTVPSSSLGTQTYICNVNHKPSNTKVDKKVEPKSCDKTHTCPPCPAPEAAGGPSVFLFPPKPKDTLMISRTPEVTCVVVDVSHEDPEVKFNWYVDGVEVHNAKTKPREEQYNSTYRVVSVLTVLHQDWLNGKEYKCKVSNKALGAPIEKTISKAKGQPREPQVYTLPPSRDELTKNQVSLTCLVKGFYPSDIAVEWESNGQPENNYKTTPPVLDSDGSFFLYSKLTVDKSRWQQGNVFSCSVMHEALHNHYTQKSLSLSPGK
light: ELVMTQSPATLSVSPGERATLSCRASEDIENYLAWYQQKPGQPPRLLIYRASTLSSGVPARFSGSGSGTEFTLTISSLQSEDFAVYYCQQGYRNSNVDNPFGGGTKVEIKRTVAAPSVFIFPPSDEQLKSGTASVVCLLNNFYPREAKVQWKVDNALQSGNSQESVTEQDSKDSTYSLSSTLTLSKADYEKHKVYACEVTHQGLSSPVTKSFNRGECGGGGSGGGGSGGGGSDIQMTQSPSSLSASVGDRVTITCQASESVDRNNRLAWFQQKPGKPPKLLIYTTSTLASGVPSRFSGSGSGTDFTLTISSLQPEDVATYYCAGYRGAHTDGDAFGGGTKVEIKGGGGSGGGGSGGGGSGGGGSEQQLVESGGGLVKPGGSLRLSCAASGFSFSRSSYMCWVRQAPGKGLEWIGCLSVGDGHTYYASWAKGRFTISKDSAKNSVYLQMNSLRAEDTAVYFCARAPSYSGDGGHGYDLWGPGTLVTVSS
IC50 (nM), Ramos cell killing by M0 macrophages, Donor 159 [5]: 0.002 nM
IC50 (nM), Ramos cell killing by M0 macrophages, Donor 161 [5]: 0.0006 nM
